We go through three molecules from patent US20210363257A1 (Pieris, published 2021).

Experiment [1] deals with T1, human CD137 expressed on cells (human, UniProt Q07011 24-255).
T1 construct: whole, on cells; also called Flp-In-CHO::huCD137; NFκB-luc2/CD137 Jurkat cells
Kind of experiment: flow cytometry, Flp-In-CHO::huCD137 cells. As for the experimental part: (§1) The geometric means of the fluorescence intensity were used to calculate EC₅₀ values using nonlinear regression (shared bottom, SLOPE=1).
(§2) 5×10⁴ cells per well were incubated for 1 h in ice-cold PBS containing 5% fetal calf serum (PBS-FCS). A dilution series of the fusion proteins and control antibodies were added to the cells and incubated for 1 h on ice. Cells were washed twice with PBS and then incubated with a goat anti-hIgG Alexa647-labeled antibody for 30 min on ice. Cells were subsequently washed and analyzed using iQue Flow cytometer (Intellicyte Screener). Mean geometric fluorescent signals were plotted and fitted with Graphpad software using nonlinear regression (shared bottom, SLOPE=1).

Experiment [2] addresses T2, human PD-L1 expressed on cells (human, UniProt Q9NZQ7 19-290).
T2 construct: whole, on cells; also called Flp-In-CHO::huPDL-1; RKO cells
Kind of experiment: flow cytometry, Flp-In-CHO::huPDL-1 cells. The protocol: as §1, §2

The target of experiment [3] is T3, cynomolgus CD137 expressed on cells (cynomolgus, UniProt A9YYE7 24-254).
T3 construct: also called Flp-In-CHO::cynoCD137
Kind of experiment: flow cytometry, Flp-In-CHO::cynoCD137 cells. As for the experimental part:
as §1, §2

The target of experiment [4] is T4, cynomolgus PD-L1 expressed on cells (cynomolgus).
T4 construct: whole, on cells; also called Flp-In-CHO::cynoPDL-1
Kind of experiment: flow cytometry, Flp-In-CHO::cynoPDL-1 cells. As for the experimental part:
as §1, §2

The target of experiment [5] is T2, human PD-L1 expressed on cells. Kind of experiment: flow cytometry, RKO tumor cells (PD-L1-positive). The protocol: as §2
For flow cytometric analysis, RKO cells were incubated with fusion proteins and detected using a fluorescently labeled anti-human IgG antibody as described in Example 6.

The target of experiment [6] is cyCD137-Fc (cynomolgus CD137 C-terminally fused to Fc) (cynomolgus). Kind of experiment: ELISA, cyCD137-Fc coated, detection anti-NGAL-HRP. The protocol:
(§3) Recombinant huPD-L1-His or cyPD-L1-His (human or cynomolgus PD-L1 with a C-terminal polyhistidine tag, R&D Systems or Sino Biologics) at the concentration of 1 μg/mL in PBS was coated overnight on microtiter plates at 4° C. After washing with PBS-0.05% T (PBS supplemented with 0.05% (v/v) Tween 20), the plates were blocked with 2% BSA (w/v) in PBS-0.1% T (PBS supplemented with 0.1% (v/v) Tween 20) for 1 h at room temperature. […] Bound molecules under study were detected by incubation with 1:5000 diluted anti-human IgG Fc-HRP (Jackson Laboratory) in PBS-0.1% T-2% BSA. After an additional wash step, fluorogenic HRP substrate (QuantaBlu, Thermo) was added to each well and the fluorescence intensity was detected using a fluorescence microplate reader.
(§4) The same ELISA setup was also employed to determine the binding potency of fusion proteins to CD137, where huCD137-His (human CD137 with C-terminal polyhistidine tag, R&D Systems) or cyCD137-Fc (cynomolgus CD137 C-terminally fused to Fc) was instead coated on a microtiter plate. The testing agents were similarly titrated and bound agents were detected via anti-NGAL-HRP.

Experiment [7] has as its target T5, huCD137-His (human CD137 with a C-terminal polyhistidine tag) (human, UniProt Q07011 24-186).
T5 construct: Bought; also called huCD137-His-Bio
Kind of experiment: ELISA, huCD137-His coated, detection anti-NGAL-HRP. The protocol:
as §3, §4

Experiment [8] deals with T6, cyPD-L1-His (cynomolgus PD-L1 with a C-terminal polyhistidine tag) (cynomolgus).
T6 construct: Bought
Kind of experiment: ELISA, cyPD-L1-His coated, detection anti-human IgG Fc-HRP. The protocol: as §3

Experiment [9] concerns the target T7, huPD-L1-His (human PD-L1 with a C-terminal polyhistidine tag) (human, UniProt Q9NZQ7 19-239).
T7 construct: Bought; also called biotinylated huPD-L1-His
Kind of experiment: ELISA, huPD-L1-His coated, detection anti-human IgG Fc-HRP. As for the experimental part:
as §3

In experiment [10] the target is T8, huPD-L1-Fc (recombinant human PD-L1 Fc fusion) (human, UniProt Q9NZQ7 19-239).
T8 construct: Bought; also called tracer huPD-L1-Fc
Kind of experiment: competitive ELISA, huPD-1-His coated, 15 nM huPD-L1-Fc tracer, binder titrated. As for the experimental part: (§5) Recombinant huPD-1-His (Acrobiosystems) in PBS (1 μg/mL) was coated overnight on microtiter plates at 4° C. The plates were washed five times after each incubation step with 100 μL PBS-0.05% T (PBS supplemented with 0.05% (v/v) Tween 20). The plates were blocked with 2% BSA (w/v) in PBS-0.1% T (PBS supplemented with 0.1% (v/v) Tween 20) for 1 h at room temperature and subsequently washed again. […] The mixtures of fusion proteins and the tracer were added to the plates and incubated for 20 min at room temperature following by five washing steps with 100 μL PBS-0.05% T. Subsequently, a 1:5000 dilution of goat-anti human IgG-Fc HRP (Jackson) was added to the wells and incubated for 1 h. After an additional wash step, fluorogenic HRP substrate (QuantaBlu, Thermo) was added to each well, and the fluorescence intensity was detected using a fluorescence microplate reader.

The target in experiment [11] is T5, huCD137-His (human CD137 with a …). Kind of experiment: SPR (Biacore), binder captured by anti-human IgG Fc, huCD137-His in solution, 25 C, 1:1 model. The protocol:
(§6) The binding kinetics and affinity of exemplary fusion proteins to huPD-L1-His or huCD137-His (human PD-L1 or human CD137 with a C-terminal polyhistidine tag, R&D Systems) were determined by surface plasmon resonance (SPR) using a Biacore 8K or a Biacore T200 (GE Healthcare).
(§7) The anti-human IgG Fc antibody (GE Healthcare) was immobilized on a CM5 sensor chip using standard amine chemistry: the carboxyl groups on the chip were activated using 1-ethyl-3-(3-dimethylaminopropyl)-carbodiimide (EDC) and N-hydroxysuccinimide (NHS). Subsequently, anti-human IgG Fc antibody solution (GE Healthcare) at a concentration of 25 μg/mL in 10 mM sodium acetate (pH 5.0) was applied at a flow rate of 5 μL/min until an immobilization level of 6000-10000 resonance units (RU) was achieved. Residual non-reacted NHS-esters were blocked by passing a solution of 1M ethanolamine across the surface. The reference channel was treated in an analogous manner. […] After each capture step, the needle was washed.
(§8) Double referencing was used and the 1:1 binding model was used to fit the raw data.

Experiment [12] addresses T7, huPD-L1-His (human PD-L1 with a …). Kind of experiment: SPR (Biacore), binder captured by anti-human IgG Fc, huPD-L1-His in solution, 25 C, 1:1 model. The protocol:
as §6, §7, §8

Experiment [13] deals with T5, huCD137-His (human CD137 with a …). Kind of experiment: dual-binding ELISA, huCD137-His coated, binder titrated, detection with biotinylated huPD-L1-His.
Experiment [14] deals with T7, huPD-L1-His (human PD-L1 with a …). Kind of experiment: dual-binding ELISA, huPD-L1-His coated, binder titrated, detection with biotinylated huCD137-His. As for the experimental part: Recombinant huPD-L1-His (R&D Systems) in PBS (1 μg/mL) was coated overnight on microtiter plates at 4° C. The plates were washed five times after each incubation step with 100 μL PBS-0.05% T. The plates were blocked with 2% BSA (w/v) in PBS-0.1% T for 1 h at room temperature and subsequently washed again. Different concentrations of tested fusion proteins were added to the wells and incubated for 1 h at room temperature, followed by a wash step. […] After washing, a 1:5000 dilution of ExtrAvidin-HRP (Sigma-Aldrich) in PBS-0.1% T-2% BSA was added to the wells and incubated for 1 h. After an additional wash step, fluorogenic HRP substrate (QuantaBlu, Thermo) was added to each well, and the fluorescence intensity was detected using a fluorescence microplate reader.

Experiment [15] deals with T9, biotinylated huCD137-Fc (human CD137 Fc fusion) (human, UniProt Q07011 24-186, biotinylated).
T9 construct: Bought; also called huCD137-Fc-bio
Kind of experiment: competitive ELISA, antibody SEQ ID NOs: 28 and 29 coated (competitor), 1 nM huCD137-Fc-bio tracer, binder titrated. As for the experimental part:
as §5, with “The” for “Recombinant huPD-1-His (Acrobiosystems) in PBS (1 μg/mL) was coated overnight on microtiter plates at 4° C. The”, “testing molecules” for “fusion proteins”, “ExtrAvidin-HRP (Sigma-Aldrich) in PBS-0.1% T-2% BSA” for “goat-anti human IgG-Fc HRP (Jackson)”
Competition data for an exemplary experiment are shown in FIG. 14, where the x-axis represents testing molecule concentration and the y-axis represents the measured trace molecule concentration. The data were fit to a 1:1 sigmoidal curve, where the IC₅₀ value and the maximum signal were free parameters, and the slope was fixed to unity.

Experiment [16] concerns the target T7, huPD-L1-His (human PD-L1 with a …). Kind of experiment: ELISA, huPD-L1-His coated, detection anti-human IgG Fc-HRP per paragraph 264; the filing does not say that this reagent detects the lipocalin mutein alone.

B1: fusion protein SEQ ID NOs: 90 and 91 (bispecific antibody, human IgG4 S228P, kappa, F234A L235A)
heavy: not shown
light: EIVLTQSPDTLSVTPKEKVTLTCRASQSIGTNIHWFQQKPGQSPKLLIKYASESISGVPSRFSGSGSGTDFTLTINSVEAEDAATYYCQQSNSWPYTFGQGTKLEIKRTVAAPSVFIFPPSDEQLKSGTASVVCLLNNFYPREAKVQWKVDNALQSGNSQESVTEQDSKDSTYSLSSTLTLSKADYEKHKVYACEVTHQGLSSPVTKSFNRGECGGGGSGGGGSGGGGSQDSTSDLIPAPPLSKVPLQQNFQDNQFHGKWYVVGQAGNIRLREDKDPIKMMATIYELKEDKSYDVTMVKFDDKKCMYDIWTFVPGSQPGEFTLGKIKSFPGHTSSLVRVVSTNYNQHAMVFFKFVFQNREEFYITLYGRTKELTSELKENFIRFSKSLGLPENHIVFPVPIDQCIDG
notes: Antibody-lipocalin mutein fusion, IgG4 S228P backbone
Consider B1, for which the EC50 worked out at 4.69 nM in experiment [1]; 4.09 nM in experiment [2]; 3.66 nM in experiment [3]; 3.37 nM in experiment [4]; 0.53 nM in experiment [5]; 0.21 nM in experiment [6]. Besides, the EC50 in experiment [7] is 0.14 nM; in experiment [8], 0.17 nM; in experiment [9] it was 0.2 nM; in experiment [13], 2.3 nM; in experiment [14] it was 0.49 nM. In addition, the IC50 in experiment [10] turned out to be 2.8 nM. Further, the Kd in experiment [11] came to 5.73 nM; in experiment [12] it was 0.537 nM. Besides, the koff in experiment [11] was 0.000224 s⁻¹; in [12] it was 0.000861 s⁻¹. In addition, the kon in [11] is 39100 M⁻¹ s⁻¹; in experiment [12] it was 1.6e+06 M⁻¹ s⁻¹.

B2: CD137-specific lipocalin mutein SEQ ID NO: 42 (designed binder)
chain: QDSTSDLIPAPPLSKVPLQQNFQDNQFHGKWYVVGQAGNIRLREDKDPIKMMATIYELKEDKSYDVTMVKFDDKKCMYDIWTFVPGSQPGEFTLGKIKSFPGHTSSLVRVVSTNYNQHAMVFFKFVFQNREEFYITLYGRTKELTSELKENFIRFSKSLGLPENHIVFPVPIDQCIDG
notes: Mutein of mature human NGAL
The molecule B2 registered an EC50 in experiment [7] of 0.27 nM. Besides, the IC50 in [15] was found to be 2.6 nM. For the same molecule, in experiment [16], the binding result is “no binding (tested: 100 nM)”.

B3: fusion protein SEQ ID NOs: 94 and 87 (bispecific antibody, human IgG4 S228P, kappa, F234A L235A)
heavy: not shown
light: EIVLTQSPDTLSVTPKEKVTLTCRASQSIGTNIHWFQQKPGQSPKLLIKYASESISGVPSRFSGSGSGTDFTLTINSVEAEDAATYYCQQSNSWPYTFGQGTKLEIKRTVAAPSVFIFPPSDEQLKSGTASVVCLLNNFYPREAKVQWKVDNALQSGNSQESVTEQDSKDSTYSLSSTLTLSKADYEKHKVYACEVTHQGLSSPVTKSFNRGEC
notes: as for B1
Turning to B3, the EC50 in experiment [1] worked out at 4.15 nM; in [2] it was 6.99 nM; in [3] it was 6.92 nM; in [4] it was 5.89 nM; in [5], 0.69 nM; in experiment [6], 0.19 nM. Besides, the EC50 in experiment [7] worked out at 0.16 nM; in experiment [8] it was 0.15 nM; in [9], 0.18 nM; in [13], 2.6 nM; in [14] it was 0.48 nM. Also, the IC50 in experiment [10] is 2.4 nM. Further, the Kd in experiment [11] was 5.5 nM; in experiment [12] it was 0.608 nM. Further, the values for the off-rate constant (koff) in experiment [11] and in experiment [12] were 0.000224 s⁻¹ and 0.000916 s⁻¹, respectively. Also, the kon in [11] amounted to 40700 M⁻¹ s⁻¹; in [12], 1.51e+06 M⁻¹ s⁻¹.
